Data set [1] addresses T1, rMucR (recombinant MucR) (Sinorhizobium meliloti 1021, UniProt P55323 1-143).
T1 sequence: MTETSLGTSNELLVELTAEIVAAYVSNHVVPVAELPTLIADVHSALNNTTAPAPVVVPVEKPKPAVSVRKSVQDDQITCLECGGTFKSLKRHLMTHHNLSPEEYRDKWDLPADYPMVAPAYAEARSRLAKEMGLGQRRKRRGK
The experiment in a line: EMSA; 10 pmol DNA; 25 mM HEPES pH 7.9, 50 mM KCl, 6.25 mM MgCl2, 5% glycerol; 10 min on ice (plus 10 min on ice after competitor); 5% polyacrylamide gel, 0.5x TBE, room temperature, 200 V, 70 min. To be noted: protein: recombinant; tags: none (pET22b+, NdeI/XhoI, native stop codon in reverse primer); chain copies: 10.

Data set [2] deals with the molecule itself. Kind of data set: SEC-MALS; samples at 1 mg/mL on Superdex 200 in the buffer of the final purification step, 0.5 mL/min; MiniDAWN Treos; higher-order oligomer, no monomer or lower-order oligomers seen. A general note: Size exclusion chromatography separates by hydrodynamic size, large species first.
The target in data set [3] is T1, rMucR (recombinant MucR). The experiment in a line: competition; vs FAM-rem site3; 5-, 10-, 20-fold excess; does not effectively compete; 25 mM HEPES pH 7.9, 50 mM KCl, 6.25 mM MgCl2, 5% glycerol; 10 min on ice (plus 10 min on ice after competitor); 5% polyacrylamide gel, 0.5x TBE, room temperature, 200 V, 70 min. To be noted: protein: recombinant; tags: none (pET22b+, NdeI/XhoI, native stop codon in reverse primer); chain copies: 10.

Data set [4] has as its target T1, rMucR (recombinant MucR). The experiment in a line: EMSA; minimal length with detectable binding; 25 mM HEPES pH 7.9, 50 mM KCl, 6.25 mM MgCl2, 5% glycerol; 10 min on ice (plus 10 min on ice after competitor); 5% polyacrylamide gel, 0.5x TBE, room temperature, 200 V, 70 min. To be noted: protein: recombinant; tags: none (pET22b+, NdeI/XhoI, native stop codon in reverse primer); chain copies: 10. Background: A gel shift assay detects complexes by their altered migration in electrophoresis.

Data set [5] concerns the target T1, rMucR (recombinant MucR). Kind of data set: EMSA; 20 pmol rMucR, 10 pmol DNA, no competitor; 25 mM HEPES pH 7.9, 50 mM KCl, 6.25 mM MgCl2, 5% glycerol; 10 min on ice (plus 10 min on ice after competitor); 5% polyacrylamide gel, 0.5x TBE, room temperature, 200 V, 70 min. The note with it: protein: recombinant; tags: none (pET22b+, NdeI/XhoI, native stop codon in reverse primer); chain copies: 10; label: FAM.

The next data set has as its target T2, native MucR (Sinorhizobium meliloti 1021, UniProt P55323 2-143).
T2 sequence: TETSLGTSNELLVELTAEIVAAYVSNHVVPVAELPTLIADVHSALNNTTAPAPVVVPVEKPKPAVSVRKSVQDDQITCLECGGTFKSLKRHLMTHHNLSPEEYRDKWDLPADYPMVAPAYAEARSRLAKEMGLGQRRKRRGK
The experiment in a line: EMSA; 25 mM HEPES pH 7.9, 50 mM KCl, 6.25 mM MgCl2, 5% glycerol; 10 min on ice (plus 10 min on ice after competitor); 5% polyacrylamide gel, 0.5x TBE, room temperature, 200 V, 70 min. The note with it: protein: native; tags: none.

B1: rem site3 (dsDNA)
DNA 1: CACGCAATTCTTAATCAACTATTAAAATCC
DNA 2: GGATTTTAATAGTTGATTAAGAATTGCGTG
In the case of B1, the binding result with rMucR (recombinant MucR) [1] is reported as “binds”.

B2: recombinant S. meliloti MucR (natural protein, Sinorhizobium meliloti 1021, UniProt P55323 1-143, looked up)
chain: MTETSLGTSNELLVELTAEIVAAYVSNHVVPVAELPTLIADVHSALNNTTAPAPVVVPVEKPKPAVSVRKSVQDDQITCLECGGTFKSLKRHLMTHHNLSPEEYRDKWDLPADYPMVAPAYAEARSRLAKEMGLGQRRKRRGK
notes: Expressed with 100 uM zinc sulfate; Oligomer by SEC-MALS corresponds to a decamer (9 to 12 protomers not excluded); also called rMucR; recombinant MucR; source: E. coli BL21(DE3), pET22b+, purified (cation exchange chromatography, size exclusion chromatography); copies: 10
In the case of B2, the “stoichiometry N” value in data set [2] stood at 10.

B3: rem site2 (dsDNA)
DNA 1: CATCATGTTAGTGGTAAGGTTAACGATCAC
DNA 2: GTGATCGTTAACCTTACCACTAACATGATG
Turning to B3, the binding result with rMucR (recombinant MucR) [1] was “binds”.

B4: rem site3 mut2 (dsDNA)
DNA 1: CGCGCGGCCCCCGGCCGGCCGCCGGGGCCC
DNA 2: GGGCCCCGGCGGCCGGCCGGGGGCCGCGCG
Turning to B4, in the data set with rMucR (recombinant MucR) [3], the binding result is recorded as “no binding”.

B5: rem site3 18 bp (dsDNA)
DNA 1: ATTCTTAATCAACTATTA
DNA 2: TAATAGTTGATTAAGAAT
Consider B5, for which the binding result in the data set with rMucR (recombinant MucR) [4] was “binds”.

B6: rem site1 (dsDNA)
DNA 1: ATCACCTACTAGATATAGGCCCAAATCGGC
DNA 2: GCCGATTTGGGCCTATATCTAGTAGGTGAT
In the case of B6, the binding result with rMucR (recombinant MucR) [1] is “binds”.

B7: FAM-labeled rem site3 (dsDNA)
DNA 1: CACGCAATTCTTAATCAACTATTAAAATCC
DNA 2: GGATTTTAATAGTTGATTAAGAATTGCGTG
As for B7, the binding result with rMucR (recombinant MucR) [5] was “binds”.

B8: MucR purified from S. meliloti (natural protein, Sinorhizobium meliloti 1021, UniProt P55323 2-143, looked up)
chain: TETSLGTSNELLVELTAEIVAAYVSNHVVPVAELPTLIADVHSALNNTTAPAPVVVPVEKPKPAVSVRKSVQDDQITCLECGGTFKSLKRHLMTHHNLSPEEYRDKWDLPADYPMVAPAYAEARSRLAKEMGLGQRRKRRGK
notes: MucR from Sinorhizobium meliloti 1021, naturally expressed; 9 to 12 protomers not excluded; also called native MucR; naturally expressed MucR; source: endogenous, purified from S. meliloti 1021 (cation exchange chromatography, size exclusion chromatography); copies: 10
B8: the “stoichiometry N” value in data set [2] amounted to 10.

B9: ndvA upstream region oligonucleotide (dsDNA)
DNA 1: GATAATTCTTCATATCACGCCCGGTCTTGCAGGAAACCTGCAAAAACTCGGAGTCGAGGCATCAAGATAGCTAACGATGAATCAT
DNA 2: ATGATTCATCGTTAGCTATCTTGATGCCTCGACTCCGAGTTTTTGCAGGTTTCCTGCAAGACCGGGCGTGATATGAAGAATTATC
Turning to B9, the binding result with native MucR was “binds”.

By stoichiometry N is commonly meant a count of units in the complex or per binding partner.
